The numbers were not newly measured in publication PMC6151437, “Antibacterial Synthetic Peptides Derived from Bovine Lactoferricin Exhibit Cytotoxic Effect against MDA-MB-468 and MDA-MB-231 Breast Cancer Cell Lines” (Molecules : A Journal of Synthetic Chemistry and Natural …, 2017), which cites them from elsewhere.

The subject of this series is HT-29 cells. Details: method as in PMID 24140317. The conditions noted are these: maximum effects at 12 h of treatment.

B1: BLF: Bovine lactoferrin, a milk protein (protein, UniProt P24627 20-708, looked up)
Lactotransferrin: APRKNVRWCTISQPEWFKCRRWQWRMKKLGAPSITCVRRAFALECIRAIAEKKADAVTLDGGMVFEAGRDPYKLRPVAAEIYGTKESPQTHYYAVAVVKKGSNFQLDQLQGRKSCHTGLGRSAGWIIPMGILRPYLSWTESLEPLQGAVAKFFSASCVPCIDRQAYPNLCQLCKGEGENQCACSSREPYFGYSGAFKCLQDGAGDVAFVKETTVFENLPEKADRDQYELLCLNNSRAPVDAFKECHLAQVPSHAVVARSVDGKEDLIWKLLSKAQEKFGKNKSRSFQLFGSPPGQRDLLFKDSALGFLRIPSKVDSALYLGSRYLTTLKNLRETAEEVKARYTRVVWCAVGPEEQKKCQQWSQQSGQNVTCATASTTDDCIVLVLKGEADALNLDGGYIYTAGKCGLVPVLAENRKSSKHSSLDCVLRPTEGYLAVAVVKKANEGLTWNSLKDKKSCHTAVDRTAGWNIPMGLIVNQTGSCAFDEFFSQSCAPGADPKSRLCALCAGDDQGLDKCVPNSKEKYYGYTGAFRCLAEDVGDVAFVKNDTVWENTNGESTADWAKNLNREDFRLLCLDGTRKPVTEAQSCHLAVAPNHAVVSRSDRAAHVKQVLLHQQALFGKNGKNCPDKFCLFKSETKNLLFNDNTECLAKLGGRPTYEEYLGTEYVTAIANLKKCSTSPLLEACAFLTR
Turning to B1, the “optimal concentration for cytotoxic activity and apoptosis” value was 800 µg/mL.
